Data on 2 molecules can be found in US20240262905A1 (PANDION OPERATIONS, published 2024).

The target of experiment [1] is PD-1 on PD-1 reporter Jurkat cells (human, UniProt Q15116 25-288). Description: cell-based or functional assay.
Experiment [2] addresses T1, human DSG-3 (human, UniProt P32926 50-615, limits assumed).
T1 construct: Soluble analyte (Octet) and plate coat (ELISA); also called hDSG-3
T1 sequence (looked up): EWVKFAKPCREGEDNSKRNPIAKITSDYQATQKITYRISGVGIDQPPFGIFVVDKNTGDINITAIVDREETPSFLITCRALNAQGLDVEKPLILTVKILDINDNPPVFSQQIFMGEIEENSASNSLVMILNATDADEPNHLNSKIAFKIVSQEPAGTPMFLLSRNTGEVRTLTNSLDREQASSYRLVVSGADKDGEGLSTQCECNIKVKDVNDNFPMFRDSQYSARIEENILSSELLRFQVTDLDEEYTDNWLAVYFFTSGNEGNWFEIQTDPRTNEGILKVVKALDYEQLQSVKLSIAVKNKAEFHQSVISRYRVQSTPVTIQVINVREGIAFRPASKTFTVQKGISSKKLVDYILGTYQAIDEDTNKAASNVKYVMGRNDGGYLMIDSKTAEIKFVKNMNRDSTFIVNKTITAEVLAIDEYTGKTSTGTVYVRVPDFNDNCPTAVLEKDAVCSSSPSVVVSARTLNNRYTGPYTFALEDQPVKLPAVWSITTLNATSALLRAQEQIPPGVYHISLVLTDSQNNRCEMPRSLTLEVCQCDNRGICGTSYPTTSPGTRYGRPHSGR
Description: BLI (Octet), test article captured on anti-human Fc biosensors, human DSG-3 as analyte, 1:1 global fit. For orientation: BLI is a label-free optical method that tracks binding on a fibre tip over time.
Description: (§1) Anti-human Fc biosensors were equilibrated in assay buffer (PBS, pH 7.4 with 1% BSA, and 0.05% Tween-20) for 30 minutes before the experiment was set-up. Test articles were diluted to 5 ug/mL in assay buffer. A two-fold, seven-point dilution of human DSG-3 (starting at 300 nM as the highest concentration) was made. Test articles were captured using anti-human Fc biosensors for 180 s. Biosensors loaded with test articles were equilibrated in assay buffer for 120 s; association was performed for 180 seconds and dissociation was performed for 300 s. Kinetic parameters (kon and kdis) and dissociation constant (KD) were calculated from a 1:1 global fit model using the data analysis software of the Octet96 RED software version 10.

The target of experiment [3] is T2, mouse PD-1 (mouse, UniProt Q02242 25-167, limits assumed).
T2 sequence (looked up): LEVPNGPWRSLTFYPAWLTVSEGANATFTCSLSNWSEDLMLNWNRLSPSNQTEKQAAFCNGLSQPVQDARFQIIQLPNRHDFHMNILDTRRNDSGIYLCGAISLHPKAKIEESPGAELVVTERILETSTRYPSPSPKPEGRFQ
Description: no binding assay described; said in the vitiligo mouse model example.

For experiment [4], the target named is T1, human DSG-3. Description: bridging ELISA, plate coated with hDSG-3, test article at 1 nM, then his-tagged hCD25 1 ug/mL, anti-His-HRP detection.
Description: (§2) An immunosorbent plate was coated with dsDNA at a concentration of 1 μg/mL hDSG-3 in PBS pH 7.4 and incubated overnight at 4° C. Wells were washed with PBS pH 7.4 containing 0.05% Tween-20 (wash buffer) three times, and then blocked with 6% milk in PBS pH 7.4 (block buffer) for two hours at room temperature. After three washes with wash buffer, 1 nM, 10 nM, and 100 nM of the test articles in assay buffer (PBS, pH 7.4 containing 1% BSA and 0.05% Tween-20) was added and incubated for 1 hr. After three washes with wash buffer 1 μg/mL of his-tagged hCD25 was added and incubated for 1 hr. Detected with anti anti-His-HRP conjugated antibody (1:10,000 dilution).
In experiment [5] the target is T1, human DSG-3. Put plainly: bridging ELISA, plate coated with hDSG-3, test article at 100 nM, then his-tagged hCD25 1 ug/mL, anti-His-HRP detection. For orientation: In an ELISA, binding on a coated surface is turned into a signal by an enzyme label.
Description: as §2
The target in experiment [6] is T3, Insulin.
T3 construct: Plate coat in the polyreactivity ELISA
Put plainly: ELISA, plate coated with insulin 5 ug/mL, test article at 100 nM, anti-human Fc-HRP detection.
Description: Non-specific DNA and Insulin binding (a measure of polyreactivity), which may be predictive of poor PK, was measured. An immunosorbent plate was coated with dsDNA at a concentration of 1 μg/mL or Insulin at 5 μg/mL in PBS pH 7.4 and incubated overnight at 4° C. Wells were washed with PBS pH 7.4 containing 0.05% Tween-20 (wash buffer) three times, and then blocked with 1% BSA in PBS pH 7.4 (block buffer) for two hours at room temperature. […] The diluted material was added to the DNA/insulin coated plate for 1 hour at room temperature. After three washes with wash buffer, a donkey anti-human FcY HRP conjugated polyclonal antibody, diluted to 1:5000 in assay buffer, was added to the plate for 1 hr at room temperature. After three washes with wash buffer and three washes with wash buffer (with no tween-20), the assay was developed with TMB, and stopped with 1N HCL. OD 450 nm was measured.

For experiment [7], the target named is T1, human DSG-3. Put plainly: BLI (Octet), test article captured on anti-human Fc biosensors, desmoglein as analyte, 1:1 global fit.
Description: as §1
Experiment [8] addresses T4, desmoglein-2 (Homo sapiens (Human), UniProt Q14126 50-609).
T4 construct: also called DSG-2
T4 sequence: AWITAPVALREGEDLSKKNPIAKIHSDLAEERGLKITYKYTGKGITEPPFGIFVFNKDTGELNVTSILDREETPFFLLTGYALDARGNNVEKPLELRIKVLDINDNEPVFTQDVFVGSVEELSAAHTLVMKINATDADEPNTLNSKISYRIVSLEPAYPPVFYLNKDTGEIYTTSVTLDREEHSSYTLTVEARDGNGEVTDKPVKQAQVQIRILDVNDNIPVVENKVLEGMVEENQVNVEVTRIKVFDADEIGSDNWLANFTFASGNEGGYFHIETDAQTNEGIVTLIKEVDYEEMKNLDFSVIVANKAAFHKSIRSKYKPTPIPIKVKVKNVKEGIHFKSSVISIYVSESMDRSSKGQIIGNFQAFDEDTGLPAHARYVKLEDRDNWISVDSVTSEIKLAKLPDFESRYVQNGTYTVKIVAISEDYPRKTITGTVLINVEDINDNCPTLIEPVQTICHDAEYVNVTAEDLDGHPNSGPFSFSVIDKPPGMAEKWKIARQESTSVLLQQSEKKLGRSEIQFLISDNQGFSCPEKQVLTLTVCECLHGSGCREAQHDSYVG
The experiment is described as above.
Description: as §1

The target of experiment [9] is T5, desmoglein-4 (Homo sapiens (Human), UniProt Q86SJ6 50-631).
T5 construct: also called DSG-4
T5 sequence: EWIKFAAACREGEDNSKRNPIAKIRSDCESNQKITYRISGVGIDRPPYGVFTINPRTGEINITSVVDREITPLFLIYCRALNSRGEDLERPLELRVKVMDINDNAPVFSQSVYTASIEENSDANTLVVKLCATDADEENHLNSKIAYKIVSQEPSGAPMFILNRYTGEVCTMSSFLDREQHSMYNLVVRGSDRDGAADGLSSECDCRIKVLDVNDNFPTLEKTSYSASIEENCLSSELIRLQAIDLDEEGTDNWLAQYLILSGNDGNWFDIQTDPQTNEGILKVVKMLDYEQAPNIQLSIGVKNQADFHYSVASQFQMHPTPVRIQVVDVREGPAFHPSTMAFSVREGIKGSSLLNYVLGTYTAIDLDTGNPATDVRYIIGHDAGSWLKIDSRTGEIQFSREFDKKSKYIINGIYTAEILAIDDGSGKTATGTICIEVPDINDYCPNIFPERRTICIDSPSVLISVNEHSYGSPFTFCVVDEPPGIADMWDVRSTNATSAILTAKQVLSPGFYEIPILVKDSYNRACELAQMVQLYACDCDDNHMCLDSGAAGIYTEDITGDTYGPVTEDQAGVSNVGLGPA
The experiment is described as above.
Description: as §1

Experiment [10] has as its target T6, desmoglein-1 (Homo sapiens (Human), UniProt Q02413 50-548).
T6 construct: also called DSG-1
T6 sequence: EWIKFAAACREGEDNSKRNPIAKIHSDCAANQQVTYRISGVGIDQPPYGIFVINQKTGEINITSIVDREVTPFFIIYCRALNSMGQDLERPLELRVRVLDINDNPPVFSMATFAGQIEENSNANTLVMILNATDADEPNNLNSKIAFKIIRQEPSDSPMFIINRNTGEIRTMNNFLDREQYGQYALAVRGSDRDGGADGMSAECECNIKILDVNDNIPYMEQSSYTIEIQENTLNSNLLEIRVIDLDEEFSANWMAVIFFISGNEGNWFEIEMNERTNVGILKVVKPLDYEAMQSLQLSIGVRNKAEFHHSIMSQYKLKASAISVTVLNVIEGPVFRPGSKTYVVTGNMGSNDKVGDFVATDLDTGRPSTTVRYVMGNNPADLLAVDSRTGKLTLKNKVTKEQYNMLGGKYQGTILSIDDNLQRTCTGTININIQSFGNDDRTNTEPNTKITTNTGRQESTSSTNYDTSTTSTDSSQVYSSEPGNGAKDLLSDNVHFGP
Described as above.
Description: as §1

Experiment [11] deals with T1, human DSG-3. Put plainly: bridging ELISA, plate coated with hDSG-3, test article at 10 nM, then his-tagged hCD25 1 ug/mL, anti-His-HRP detection.
Description: as §2

As usually defined, the Kd is the free concentration of one partner at which half of the binding sites on the other are occupied at equilibrium, for simple one-to-one binding. The term koff denotes a measure of how fast the partners let go of each other. Higher therefore signals fast dissociation.

Sequence of PD-1 on PD-1 reporter Jurkat cells (Q15116 25-288): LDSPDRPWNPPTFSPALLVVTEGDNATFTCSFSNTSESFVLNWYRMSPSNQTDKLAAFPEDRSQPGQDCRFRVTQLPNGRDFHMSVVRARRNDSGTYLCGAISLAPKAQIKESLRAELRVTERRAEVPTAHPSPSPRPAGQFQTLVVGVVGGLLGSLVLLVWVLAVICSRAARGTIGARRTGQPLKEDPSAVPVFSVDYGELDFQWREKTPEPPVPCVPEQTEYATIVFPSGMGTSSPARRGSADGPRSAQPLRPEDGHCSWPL

B1: PD1DSGAB9 (bispecific antibody)
heavy: EVQLLESGGGLVQPGGSLRLSCAASGFTFSNSDMSWVRQAPGKGLEWVSGITISGGSTYYADSVKGRFTISRDNSKNTLYLQMNSLRAEDTAVYYCARGRGGSGWLDYWGQGTLVTVSSASTKGPSVFPLAPSSKSTSGGTAALGCLVKDYFPEPVTVSWNSGALTSGVHTFPAVLQSSGLYSLSSVVTVPSSSLGTQTYICNVNHKPSNTKVDKKVEPKSCDKTHTCPPCPAPEAAGAPSVFLFPPKPKDTLMISRTPEVTCVVVDVSHEDPEVKFNWYVDGVEVHNAKTKPREEQYNSTYRVVSVLTVLHQDWLNGKEYKCKVSNKALPAPIEKTISKAKGQPREPQVYTLPPSREEMTKNQVSLTCLVKGFYPSDIAVEWESNGQPENNYKTTPPVLDSDGSFFLYSKLTVDKSRWQQGNVFSCSVMHEALHNHYTQKSLSLSPGGGGGSGGGGSGGGGSQSVLTQPPSVSGTPGQRVTISCSGSSSHIGSNYVYWYQQLPGTAPKILIYSNDQRPAGVPDRFSASKSGTSASLAISGLRSEDEADYYCAAWDDGQGGVFGGGTKLTVLGGGGSGGGGSGGGGSGGGGSQVQLQESGPGPVKPSGTLSLTCGVSGGSISSNHWWTWVRQPPGKGLEWIGEIYHNGSTFLNPSLKSRVTISVDKSNNQFSLKLTSVTAADTAVYYCARGWHRTGFRGYPSHWYFDLWGRGTLVSVSS
light: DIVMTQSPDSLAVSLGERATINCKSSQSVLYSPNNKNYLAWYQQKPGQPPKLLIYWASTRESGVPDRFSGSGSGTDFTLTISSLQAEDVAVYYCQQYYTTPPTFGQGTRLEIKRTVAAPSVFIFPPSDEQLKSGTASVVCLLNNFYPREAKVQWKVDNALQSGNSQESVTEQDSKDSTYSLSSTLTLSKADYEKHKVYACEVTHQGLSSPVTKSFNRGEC
notes: also called PD1DS91; copies: 2 + 2
With B1, in [1], the “SHP-2 recruitment in PD-1 reporter Jurkat cells (test article on anti-human IgG coated plate), EC50 at 2 hours” value came to 21.2 nM and the “SHP-2 recruitment in PD-1 reporter Jurkat cells (test article on anti-human IgG coated plate), EC50 at 24 hours” value is 16.6 nM. Further, in experiment [2], binding was put at a Kd of 29 nM and the koff came out at 0.000757 s⁻¹. Also, in experiment [3], the binding result is on record as “no binding”.

B2: IL2DSGAB1 (other)
heavy: QVQLQESGPGPVKPSGTLSLTCGVSGGSISSNHWWTWVRQPPGKGLEWIGEIYHNGSTFLNPSLKSRVTISVDKSNNQFSLKLTSVTAADTAVYYCARGWHRTGFRGYPSHWYFDLWGRGTLVSVSSASTKGPSVFPLAPSSKSTSGGTAALGCLVKDYFPEPVTVSWNSGALTSGVHTFPAVLQSSGLYSLSSVVTVPSSSLGTQTYICNVNHKPSNTKVDKKVEPKSCDKTHTCPPCPAPEAAGAPSVFLFPPKPKDTLMISRTPEVTCVVVDVSHEDPEVKFNWYVDGVEVHNAKTKPREEQYNSTYRVVSVLTVLHQDWLNGKEYKCKVSNKALPAPIEKTISKAKGQPREPQVYTLPPSREEMTKNQVSLTCLVKGFYPSDIAVEWESNGQPENNYKTTPPVLDSDGSFFLYSKLTVDKSRWQQGNVFSCSVMHEALHNHYTQKSLSLSPGGGGGSAPTSSSTKKTQLQLEHLLLDLQMILNGINNYKNPKLTRMLTFKFYMPKKATELKHLQCLEEELKPLEEALNLAPSKNFHLRPRDLISDINVIVLELKGSETTFMCEYADETATIVEFINRWITFSQSIISTLT
light: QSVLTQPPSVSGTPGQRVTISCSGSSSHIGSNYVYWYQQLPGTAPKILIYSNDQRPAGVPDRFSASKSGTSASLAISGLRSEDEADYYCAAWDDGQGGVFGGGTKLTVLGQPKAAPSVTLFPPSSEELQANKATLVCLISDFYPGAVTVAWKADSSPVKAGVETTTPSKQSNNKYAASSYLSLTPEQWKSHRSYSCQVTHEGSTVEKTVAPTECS
notes: SD1 anti-desmoglein human IgG1 with the IL-2 mutein fused to the C-terminus of the heavy chain; copies: 2 + 2
Take B2: the “absorbance (OD450 nm)” value amounted to 0.31 in [4], 1.3 in [5] and 0.78 in [11]. The molecule also yielded an Insulin polyreactivity score in experiment [6] of 2.2. The Kd is 19 nM in experiment [7], 4.2 nM in [8], 10 nM in experiment [9] and 13 nM in experiment [10].
